Assays:
[1] = target: T1, linear (CGHHQKG) (SEQ ID NO: 2) peptide-BSA (linear (non-cyclized) peptide; conjugated to BSA); assay: SPR multi-cycle kinetics, purified IgG4 vs linear peptide-BSA
T1 construct: also called linear peptide-BSA; linear-BSA peptide

[2] = target: T2, A-beta42 Oligomer (oligomer prep, made in F12 medium) (human); assay: SPR (MASS-1), antibody immobilized, A-beta42 oligomer injected
T2 construct: also called synthetic AβO
Description: (§1) All surface plasmon resonance (SPR) measurements were performed using a Molecular Affinity Screening System (MASS-1) (Sierra Sensors GmbH, Hamburg, Germany), an analytical biosensor that employs high intensity laser light and high speed optical scanning to monitor binding interactions in real time. In SPR direct binding assays, antibodies are covalently immobilized on individual flow cells of a High Amine Capacity (HAC) sensorchip (Sierra Sensors GmbH, Hamburg, Germany) and ligands flowed over the surface (BSA-conjugated peptides, A-beta42 Monomer and A-beta42 Oligomer). Each sample was diluted and injected in duplicate over the immobilized peptide and BSA reference surfaces, followed by injection of running buffer only for the dissociation phase. After every analytical cycle, the sensor chip surfaces were regenerated. Sensorgrams were double-referenced by subtracting out binding from the BSA reference surfaces and blank running buffer injections, and binding response report points collected in the dissociation phase.

[3] = target: T3, cyclo (CGHHQKG) (SEQ ID NO: 2)-BSA (cyclized peptide, cyclo(CGHHQKG); conjugated to BSA); assay: SPR multi-cycle kinetics, purified IgG4 vs cyclic peptide-BSA
T3 construct: also called cyclic peptide-BSA; cyclo-BSA peptide

[4] = target: T4, commercial A-beta oligomer (purchased from SynAging) (human); assay: SPR (MASS-1), antibody immobilized, commercial oligomer injected
T4 construct: also called commercial oligomer
Description: as §1

[5] = target: T1, linear (CGHHQKG) (SEQ ID NO: 2) …; assay: SPR single cycle kinetics; IgG4 in cell supernatant captured on Protein A chip; peptide-BSA injected at four rising concentrations, 0.025 to 0.675 nM [Cont.]
Description: (§2) A four-point, three-fold dilution range from 0.025 nM to 0.675 nM peptide-BSA without regeneration between each concentration was used.

[6] = target: T3, cyclo (CGHHQKG) (SEQ ID NO: 2)-BSA; assay: as above
Description: as §2

T2 sequence (peptide, as listed by the source): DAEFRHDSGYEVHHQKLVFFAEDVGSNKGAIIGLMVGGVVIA
T4 sequence (peptide, as listed by the source): as above
T1 sequence (P02769 25-607 limits assumed): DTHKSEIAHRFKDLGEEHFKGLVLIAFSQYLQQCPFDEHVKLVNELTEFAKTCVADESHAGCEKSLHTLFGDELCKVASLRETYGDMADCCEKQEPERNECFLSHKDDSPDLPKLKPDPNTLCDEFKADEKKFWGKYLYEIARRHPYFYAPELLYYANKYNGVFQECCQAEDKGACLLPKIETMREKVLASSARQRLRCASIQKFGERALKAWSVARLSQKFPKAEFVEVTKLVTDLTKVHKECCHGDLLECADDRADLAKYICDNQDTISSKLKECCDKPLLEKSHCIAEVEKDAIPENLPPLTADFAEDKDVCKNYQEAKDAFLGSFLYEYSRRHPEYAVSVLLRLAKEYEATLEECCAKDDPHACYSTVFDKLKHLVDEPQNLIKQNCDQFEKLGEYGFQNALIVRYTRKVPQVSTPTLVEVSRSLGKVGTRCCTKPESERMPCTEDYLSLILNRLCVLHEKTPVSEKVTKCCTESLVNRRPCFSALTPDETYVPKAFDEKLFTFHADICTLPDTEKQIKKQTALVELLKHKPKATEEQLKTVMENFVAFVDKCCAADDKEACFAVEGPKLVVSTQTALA
T3 sequence (P02769 25-607 limits assumed): as above

Binder	Kd [1]	koff [1]	kon [1]	Binding to oligomer prep (BRU) [2]	Kd [3]	koff [3]	kon [3]	Binding to commercial oligomer (BRU) [4]	binding result [5]	binding result [6]
parental antibody, PMN310 humanized antibody variant VH2/Vk5 (human IgG4 S241P / kappa) (antibody, V domains shown, also called parental huPMN310; huPMN310) VH: QVQLVQSGAEVKKPGASVKMSCKASGYSFTSYWINWVKQRPGQGLEWIGDVHPGRGVSTYNAKFKSRATLTLDTSISTAYMELSSLRSEDTAVYYCSRSHGNTYWFFDVWGQGTTVTVSS VL: DVLMTQSPLSLPVTLGQPASISCRSSQSIVHSNGNTYLEWYQQRPGQSPRLLIYKVSNRFSGVPDRFSGSGSGTDFTLKISRVEAEDVGVYYCFQGSHVPFTFGQGTKLEIKR	0.103 nM	0.000155 s⁻¹	1.5e+06 M⁻¹ s⁻¹	85.6 BRU	0.0274 nM	0.000155 s⁻¹	5.65e+06 M⁻¹ s⁻¹	3 BRU		
Clone 4 (affinity matured VH with parental Vk, human IgG4 S241P / kappa) (antibody, V domains shown) VH: QVQLVQSGAEVKKPGASVKMSCKASGYSFTSYWINWVKQRPGQGLEWIGDVHPGRGVSTYNAKFKSRATLTLDTSISTAYMELSSLRSEDTAVYYCARVSPTGYWFFDVWGQGTTVTVSS VL: DVLMTQSPLSLPVTLGQPASISCRSSQSIVHSNGNTYLEWYQQRPGQSPRLLIYKVSNRFSGVPDRFSGSGSGTDFTLKISRVEAEDVGVYYCFQGSHVPFTFGQGTKLEIKR				57.3 BRU	0.0235 nM	6.9e-05 s⁻¹	2.94e+06 M⁻¹ s⁻¹	22.6 BRU		
Clone 13 (antibody, human IgG4 S228P, kappa, V domains shown) VH: QVQLVQSGAEVKKPGASVKMSCKASGYSFTSYWINWVKQRPGQGLEWIGDVHPGRGVSTYNAKFKSRATLTLDTSISTAYMELSSLRSEDTAVYYCARSVGDTYWFYDVWGQGTTVTVSS VL: DVLMTQSPLSLPVTLGQPASISCRSSQSIVHSNGNTYLEWYQQRPGQSPRLLIYKVSNRFSGVPDRFSGSGSGTDFTLKISRVEAEDVGVYYCFQGSHVPFTFGQGTKLEIKR									no binding	no binding
Clone 5 (affinity matured VH with parental Vk, human IgG4 S241P / kappa) (antibody, V domains shown) VH: QVQLVQSGAEVKKPGASVKMSCKASGYSFTSYWINWVKQRPGQGLEWIGDVHPGRGVSTYNAKFKSRATLTLDTSISTAYMELSSLRSEDTAVYYCARGALSPYWFFDVWGQGTTVTVSS VL: DVLMTQSPLSLPVTLGQPASISCRSSQSIVHSNGNTYLEWYQQRPGQSPRLLIYKVSNRFSGVPDRFSGSGSGTDFTLKISRVEAEDVGVYYCFQGSHVPFTFGQGTKLEIKR	0.0924 nM	0.000138 s⁻¹	1.49e+06 M⁻¹ s⁻¹	223 BRU	0.0647 nM	0.000132 s⁻¹	2.04e+06 M⁻¹ s⁻¹	32.3 BRU		
Clone 14 (affinity matured VH with parental Vk, human IgG4 S241P / kappa) (antibody, V domains shown) VH: QVQLVQSGAEVKKPGASVKMSCKASGYSFTSYWINWVKQRPGQGLEWIGDVHPGRGVSTYNAKFKSRATLTLDTSISTAYMELSSLRSEDTAVYYCAKSDASGYWFFDVWGQGTTVTVSS VL: DVLMTQSPLSLPVTLGQPASISCRSSQSIVHSNGNTYLEWYQQRPGQSPRLLIYKVSNRFSGVPDRFSGSGSGTDFTLKISRVEAEDVGVYYCFQGSHVPFTFGQGTKLEIKR				30.8 BRU	0.0289 nM	0.000152 s⁻¹	5.26e+06 M⁻¹ s⁻¹	22.3 BRU		
